{
  "source": "patent CN114935649A",
  "about": "(dated 2022)",
  "biological_target": "T1, HPV6和HPV11的共同抗原表位肽 (SEQ ID NO:1) (HPV6 and HPV11)",
  "T1 construct": "also called 序列1的免疫抗原肽; HPV6和HPV11高免疫原性抗原肽",
  "T1 peptide": "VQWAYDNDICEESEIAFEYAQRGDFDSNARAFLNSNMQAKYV",
  "assay": "SPR (ProteOn XPR36), antigen amine-coupled to GLC chip, antibody as analyte at 18.75-600 nM",
  "data": [
    {"binder": "单克隆抗体7C4c (antibody, V domains shown) VH: EVQLEESATELARPGASVKLSCKASGYIFSGRWQAWIKQRPGQGLEWIGQELMWQAPHILEDSPGGKATLTADKSSSTAYMQLSSLASEDSAVYYCAGSQKWTACWGLGTTLAVSS VL: DIVITQRPALMAASPGEKVTITCSTGYYPINQWCSWYQQKSGISPKPWIYINHDKTNGVPARFSGSGSGTSYSLTITSMEAEDAATYYCHSVQSSSCPFGAGTKLELK", "values": [
      {"measurement": "Kd", "value": 3.24, "unit": "nM"}
    ]}
  ]
}
